Assay results published in patent publication US20050100554A1 (published 2005).

T1: RABIF (human, UniProt P47224 1-123)
T1 construct: also called cbe_3472582
T1 sequence: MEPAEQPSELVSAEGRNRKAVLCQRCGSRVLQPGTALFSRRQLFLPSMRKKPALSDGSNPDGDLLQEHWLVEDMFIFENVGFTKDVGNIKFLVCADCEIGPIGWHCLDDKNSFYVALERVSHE

T2: PCDH1 (human, UniProt Q08174 58-1060)
T2 construct: also called cbe_4269156
T2 sequence: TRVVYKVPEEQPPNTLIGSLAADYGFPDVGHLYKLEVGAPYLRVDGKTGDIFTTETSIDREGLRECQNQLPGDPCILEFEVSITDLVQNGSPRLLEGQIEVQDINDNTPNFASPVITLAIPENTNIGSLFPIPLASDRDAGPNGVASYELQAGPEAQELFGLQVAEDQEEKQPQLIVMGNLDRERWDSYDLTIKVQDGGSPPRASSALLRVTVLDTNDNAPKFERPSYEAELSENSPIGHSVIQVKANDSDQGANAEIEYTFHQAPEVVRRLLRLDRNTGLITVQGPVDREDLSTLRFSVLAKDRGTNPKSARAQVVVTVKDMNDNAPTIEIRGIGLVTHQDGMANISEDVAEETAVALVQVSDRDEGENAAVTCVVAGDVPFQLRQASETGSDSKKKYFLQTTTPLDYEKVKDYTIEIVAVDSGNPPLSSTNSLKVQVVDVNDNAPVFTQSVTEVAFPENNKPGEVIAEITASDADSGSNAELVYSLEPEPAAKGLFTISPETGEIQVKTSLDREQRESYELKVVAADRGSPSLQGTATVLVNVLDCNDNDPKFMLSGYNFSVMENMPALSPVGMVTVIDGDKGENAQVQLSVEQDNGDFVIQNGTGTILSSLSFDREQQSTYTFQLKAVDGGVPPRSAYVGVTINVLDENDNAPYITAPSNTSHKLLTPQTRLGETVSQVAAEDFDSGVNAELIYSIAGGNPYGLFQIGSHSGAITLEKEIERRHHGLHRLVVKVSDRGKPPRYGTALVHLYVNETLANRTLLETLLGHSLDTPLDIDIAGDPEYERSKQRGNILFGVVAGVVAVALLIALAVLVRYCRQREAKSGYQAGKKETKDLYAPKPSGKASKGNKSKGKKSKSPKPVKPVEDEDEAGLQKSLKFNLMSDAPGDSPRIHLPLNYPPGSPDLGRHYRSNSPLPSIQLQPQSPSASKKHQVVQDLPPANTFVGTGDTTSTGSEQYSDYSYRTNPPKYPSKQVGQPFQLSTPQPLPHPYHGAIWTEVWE

T3: PEST-containing nuclear protein (human, UniProt Q8WW12 2-178)
T3 construct: also called pcnp; PCNP
T3 sequence: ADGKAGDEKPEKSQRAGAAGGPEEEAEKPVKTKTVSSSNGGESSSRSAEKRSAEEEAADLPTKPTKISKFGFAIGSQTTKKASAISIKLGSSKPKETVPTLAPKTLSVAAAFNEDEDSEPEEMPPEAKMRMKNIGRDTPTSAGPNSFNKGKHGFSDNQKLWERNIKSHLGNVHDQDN

T4: PTPN21 (human, UniProt Q16825 1-1174)
T4 construct: also called cbe_4260642
T4 sequence: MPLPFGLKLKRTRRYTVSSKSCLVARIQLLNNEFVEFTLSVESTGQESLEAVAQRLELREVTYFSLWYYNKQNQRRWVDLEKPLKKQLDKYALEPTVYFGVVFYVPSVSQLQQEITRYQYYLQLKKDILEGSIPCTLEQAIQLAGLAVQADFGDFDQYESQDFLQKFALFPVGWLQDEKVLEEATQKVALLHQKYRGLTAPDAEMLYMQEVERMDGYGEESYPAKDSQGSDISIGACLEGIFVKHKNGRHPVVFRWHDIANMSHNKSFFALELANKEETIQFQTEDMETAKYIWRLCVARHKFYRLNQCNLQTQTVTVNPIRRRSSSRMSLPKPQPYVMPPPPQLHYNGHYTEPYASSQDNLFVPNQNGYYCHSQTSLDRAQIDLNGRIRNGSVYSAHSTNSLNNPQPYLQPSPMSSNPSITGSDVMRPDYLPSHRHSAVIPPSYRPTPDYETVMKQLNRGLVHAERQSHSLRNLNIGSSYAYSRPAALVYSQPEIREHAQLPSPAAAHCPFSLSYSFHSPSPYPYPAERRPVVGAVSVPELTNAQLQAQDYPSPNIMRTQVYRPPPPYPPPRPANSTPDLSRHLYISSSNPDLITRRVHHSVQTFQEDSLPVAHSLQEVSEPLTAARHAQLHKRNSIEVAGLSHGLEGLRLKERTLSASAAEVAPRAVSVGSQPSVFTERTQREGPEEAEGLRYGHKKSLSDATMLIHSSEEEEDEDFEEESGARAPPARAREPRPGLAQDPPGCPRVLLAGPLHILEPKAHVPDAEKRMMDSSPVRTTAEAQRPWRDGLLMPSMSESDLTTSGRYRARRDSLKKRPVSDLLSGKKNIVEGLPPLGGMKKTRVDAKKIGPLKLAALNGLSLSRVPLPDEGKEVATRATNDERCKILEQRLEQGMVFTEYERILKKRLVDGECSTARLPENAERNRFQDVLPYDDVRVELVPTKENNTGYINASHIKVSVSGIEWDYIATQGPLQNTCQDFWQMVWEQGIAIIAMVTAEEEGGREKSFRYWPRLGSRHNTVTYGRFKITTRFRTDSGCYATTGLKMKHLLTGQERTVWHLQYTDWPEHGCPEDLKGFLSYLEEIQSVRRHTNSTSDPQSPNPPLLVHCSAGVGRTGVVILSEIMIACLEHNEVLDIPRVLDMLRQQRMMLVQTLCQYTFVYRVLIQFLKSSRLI

B1: HPV 16 E1-E4 (other)
chain: MADPAAATKYPLLKLLGSTWPTTPPRPIPKPSPWAPKKHRRLSSDQDQSQTPETPATPLSCCTETQWTVLQSSLHLTAHTKDGLTVIVTLHP
notes: also called cbe_251059
B2: Human papillomavirus 11 E1 (other)
chain: MADDSGTENEGSGCTGWFMVEAIVEHTTGTQISEDEEEEVEDSGYDMVDFIDDRHITQNSVEAQALFNRQEADAHYATVQDLKRKYLGSPYVSPISNVANAVESEISPRLDAIKLTTQPKKVKRRLFETRELTDSGYGYSEVEAATQVEKHGDPENGGDGQERDTGRDIEGEGVEHREAEAVDDSTREHADTSGILELLKCKDIRSTLHGKFKDCFGLSFVDLIRPFKSDRTTCADWVVAGFGIHHSIADAFQKLIEPLSLYAHIQWLTNAWGMVLLVLIRFKVNKSRCTVARTLGTLLNIPENHMLIEPPKIQSGVRALYWFRTGISNASTVIGEAPEWITRQTVIEHSLADSQFKLTEMVQWAYDNDICEESEIAFEYAQRGDFDSNARAFLNSNMQAKYVKDCAIMCRHYKHAEMKKMSIKQWIKYRGTKVDSVGNWKPIVQFLRHQNIEFIPFLSKLKLWLHGTPKKNCIAIVGPPDTGKSCFCMSLIKFLGGTVISYVNSCSHFWLQPLTDAKVALLDDATQPCWTYMDTYMRNLLDGNPMSIDRKHRALTLIKCPPLLVTSNIDISKEEKYKYLHSRVTTFTFPNPFPFDRNGNAVYELSDANWKCFFERLSSSLDIEDSEDEEDGSNSQAFRCVPGSVVRTL
notes: also called HPV 11 E1; cbe_251663
B3: gbh_af252829 (other)
chain: MGKKQNRKTGNSKTQSTSPPPKERSSSPATDQSWMENDFDELREEGFRRSNYSELREDIQTKGKEVENFEKNLEECITRITNTEKCLKELMELKTKARELREECRSLRSQCDQLEERVSAMEDEMNEMKQEGKFREKRIKRNEQSLQEIWDYVKRPNLRLIGVPESDAENGTKLENTLQDIIQETFPNLARQANVQIQEIQRTPQRYSSRRATPRHIIVRFTKVEMKEKMLRAAREKGRVTLKGKPIRLTADLSAETLQARREWGPILNILKEKNFQPRISYPAKLSFISEGEIKYFTDKQMLTDFVTSRPALKELLKEALNMERNNRYQPLQNHAKM
notes: also called Homo sapiens chromosome 8 clone BAC 495D4 map 8q24; cbe_3454406
B4: hypothetical protein FLJ20343 (other)
chain: MAQPHTTSVPYFARSPAPPPPSRSGAPPQPPATLRPSRRRTRPPRPADRRDAPADCAYLWRILTPRRGRARRSDVGARHRACGRRDVLLSRQGPANPEGARRVVGGQERVWPAVRRGRGGSMFRLLSWSLGRGFLRAAGRRCRGCSARLLPGLAGGPGPEVQVPPSRVAPHGRGPGLLPLLAALAWFSRPAAAEEEEQQGADGAAAEDGADEAEAEIIQLLKRAKLSIMKDEPEEAELILHDALRLAYQTDNKKAITYTYDLMANLAFIRGQLENAEQLFKATMSYLLGGGMKQEDNAIIEISLKLASIYAAQNRQEFAVAGYEFCISTLEEKIEREKELAEDIMSVEEKANTHLLLGMCLDACARYLLFSKQPSQAQRMYEKALQISEEIQGERHPQTIVLMSDLATTLDAQGRFDEAYIYMQRASDLARQINHPELHMVLSNLAAVLMHRERYTQAKEIYQEALKQAKLKKDEISVQHIREELAELSKKSRPLTNSVKL
notes: also called cbe_3880186
B5: proteosome (prosome, macropain) subunit, beta type, 3 (other)
chain: SIMSYNGGAVMAMKGKNCVAIAADRRFGIQAQLVTTDFQKIFPMGDRLYIGLAGLATDVQTVAQRLKFRLNLYELKEGRQIKPYTLMSMVANLLYEKRFGPYYTEPVIAGLDPKTFKPFICSLDLIGCPMVTDDFVVSGTCAEQMYGMCESLWEPNMDPDHLFETISQAMLNAVDRDAVSGMGVIVHIIEKDKITTRTLKARMD
notes: also called PSMB3; cbe_3842044
B6: Human papillomavirus 11 E7 (other)
chain: MHGRLVTLKDIVLDLQPPDPVGLHCYEQLEDSSEDEVDKVDKQDAQPLTQHYQILTCCCGCDSNVRLVVECTDGDIRQLQDLLLGTLNIVCPICAPKP
notes: also called HPV 11 E7; cbe_250834

Columns and labels:
RABIF = biological target: T1, RABIF; assay: Y2H; INT ID 139
PCDH1 = biological target: T2, PCDH1; assay: Y2H; INT ID 142
[1] = biological target: T3, PEST-containing nuclear protein; assay: Y2H; INT ID 140
DKFZP434I1735 protein = biological target: T5, DKFZP434I1735 protein (human, UniProt Q86XA9 451-2040); assay: Y2H; INT ID 50
T5 construct: also called cbe_3643627
T5 sequence (Q86XA9 451-2040 V880M limits assumed): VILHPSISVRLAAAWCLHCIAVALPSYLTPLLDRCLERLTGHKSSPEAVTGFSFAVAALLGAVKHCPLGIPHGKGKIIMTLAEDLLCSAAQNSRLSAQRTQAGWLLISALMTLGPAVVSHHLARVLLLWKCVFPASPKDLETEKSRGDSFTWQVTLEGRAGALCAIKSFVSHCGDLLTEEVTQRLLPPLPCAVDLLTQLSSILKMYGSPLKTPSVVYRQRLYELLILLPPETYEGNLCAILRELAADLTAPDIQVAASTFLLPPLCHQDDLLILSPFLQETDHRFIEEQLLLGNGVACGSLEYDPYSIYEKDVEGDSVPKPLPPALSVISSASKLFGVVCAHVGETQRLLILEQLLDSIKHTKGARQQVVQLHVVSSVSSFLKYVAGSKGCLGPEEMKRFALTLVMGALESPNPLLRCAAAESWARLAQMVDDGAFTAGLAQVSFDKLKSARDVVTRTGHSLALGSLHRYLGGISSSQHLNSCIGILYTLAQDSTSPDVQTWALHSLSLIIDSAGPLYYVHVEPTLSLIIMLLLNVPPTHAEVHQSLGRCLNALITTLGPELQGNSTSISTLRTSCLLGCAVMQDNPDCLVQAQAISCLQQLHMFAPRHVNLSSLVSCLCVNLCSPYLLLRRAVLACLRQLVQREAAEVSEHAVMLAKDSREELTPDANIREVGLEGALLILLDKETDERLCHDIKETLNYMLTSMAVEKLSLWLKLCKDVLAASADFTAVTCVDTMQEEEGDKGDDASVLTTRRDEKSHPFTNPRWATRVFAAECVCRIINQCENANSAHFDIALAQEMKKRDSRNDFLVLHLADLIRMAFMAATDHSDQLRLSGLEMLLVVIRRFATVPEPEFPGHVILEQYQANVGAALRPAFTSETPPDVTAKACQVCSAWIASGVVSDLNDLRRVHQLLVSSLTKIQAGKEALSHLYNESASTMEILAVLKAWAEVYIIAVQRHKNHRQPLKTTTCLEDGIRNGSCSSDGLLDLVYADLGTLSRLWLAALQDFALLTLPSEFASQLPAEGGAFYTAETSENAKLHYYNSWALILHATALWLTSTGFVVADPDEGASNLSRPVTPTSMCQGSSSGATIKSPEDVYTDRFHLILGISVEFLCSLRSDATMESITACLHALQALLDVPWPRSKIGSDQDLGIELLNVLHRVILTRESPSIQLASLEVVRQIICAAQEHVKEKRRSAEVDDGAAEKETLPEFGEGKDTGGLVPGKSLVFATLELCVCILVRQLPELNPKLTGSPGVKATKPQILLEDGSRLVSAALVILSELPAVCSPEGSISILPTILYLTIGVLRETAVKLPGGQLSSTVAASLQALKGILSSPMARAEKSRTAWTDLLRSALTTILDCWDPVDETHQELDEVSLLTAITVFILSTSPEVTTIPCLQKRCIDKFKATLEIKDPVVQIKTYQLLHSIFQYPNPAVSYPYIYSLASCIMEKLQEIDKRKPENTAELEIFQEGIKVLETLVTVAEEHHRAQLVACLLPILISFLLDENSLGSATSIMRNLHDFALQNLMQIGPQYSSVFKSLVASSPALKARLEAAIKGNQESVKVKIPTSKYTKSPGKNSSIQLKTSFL

[2] = biological target: B6; assay: Y2H; INT ID 38
HPV 16 E1-E4 = biological target: B1; assay: Y2H; INT ID 141
[3] = biological target: B2; assay: Y2H; INT ID 51
[4] = biological target: T6, signal-induced proliferation-associated 1 like 1 (human, UniProt O43166 1-1804); assay: Y2H; INT ID 37
T6 construct: also called KIAA0440; cbe_3056756
T6 sequence (O43166 whole entry): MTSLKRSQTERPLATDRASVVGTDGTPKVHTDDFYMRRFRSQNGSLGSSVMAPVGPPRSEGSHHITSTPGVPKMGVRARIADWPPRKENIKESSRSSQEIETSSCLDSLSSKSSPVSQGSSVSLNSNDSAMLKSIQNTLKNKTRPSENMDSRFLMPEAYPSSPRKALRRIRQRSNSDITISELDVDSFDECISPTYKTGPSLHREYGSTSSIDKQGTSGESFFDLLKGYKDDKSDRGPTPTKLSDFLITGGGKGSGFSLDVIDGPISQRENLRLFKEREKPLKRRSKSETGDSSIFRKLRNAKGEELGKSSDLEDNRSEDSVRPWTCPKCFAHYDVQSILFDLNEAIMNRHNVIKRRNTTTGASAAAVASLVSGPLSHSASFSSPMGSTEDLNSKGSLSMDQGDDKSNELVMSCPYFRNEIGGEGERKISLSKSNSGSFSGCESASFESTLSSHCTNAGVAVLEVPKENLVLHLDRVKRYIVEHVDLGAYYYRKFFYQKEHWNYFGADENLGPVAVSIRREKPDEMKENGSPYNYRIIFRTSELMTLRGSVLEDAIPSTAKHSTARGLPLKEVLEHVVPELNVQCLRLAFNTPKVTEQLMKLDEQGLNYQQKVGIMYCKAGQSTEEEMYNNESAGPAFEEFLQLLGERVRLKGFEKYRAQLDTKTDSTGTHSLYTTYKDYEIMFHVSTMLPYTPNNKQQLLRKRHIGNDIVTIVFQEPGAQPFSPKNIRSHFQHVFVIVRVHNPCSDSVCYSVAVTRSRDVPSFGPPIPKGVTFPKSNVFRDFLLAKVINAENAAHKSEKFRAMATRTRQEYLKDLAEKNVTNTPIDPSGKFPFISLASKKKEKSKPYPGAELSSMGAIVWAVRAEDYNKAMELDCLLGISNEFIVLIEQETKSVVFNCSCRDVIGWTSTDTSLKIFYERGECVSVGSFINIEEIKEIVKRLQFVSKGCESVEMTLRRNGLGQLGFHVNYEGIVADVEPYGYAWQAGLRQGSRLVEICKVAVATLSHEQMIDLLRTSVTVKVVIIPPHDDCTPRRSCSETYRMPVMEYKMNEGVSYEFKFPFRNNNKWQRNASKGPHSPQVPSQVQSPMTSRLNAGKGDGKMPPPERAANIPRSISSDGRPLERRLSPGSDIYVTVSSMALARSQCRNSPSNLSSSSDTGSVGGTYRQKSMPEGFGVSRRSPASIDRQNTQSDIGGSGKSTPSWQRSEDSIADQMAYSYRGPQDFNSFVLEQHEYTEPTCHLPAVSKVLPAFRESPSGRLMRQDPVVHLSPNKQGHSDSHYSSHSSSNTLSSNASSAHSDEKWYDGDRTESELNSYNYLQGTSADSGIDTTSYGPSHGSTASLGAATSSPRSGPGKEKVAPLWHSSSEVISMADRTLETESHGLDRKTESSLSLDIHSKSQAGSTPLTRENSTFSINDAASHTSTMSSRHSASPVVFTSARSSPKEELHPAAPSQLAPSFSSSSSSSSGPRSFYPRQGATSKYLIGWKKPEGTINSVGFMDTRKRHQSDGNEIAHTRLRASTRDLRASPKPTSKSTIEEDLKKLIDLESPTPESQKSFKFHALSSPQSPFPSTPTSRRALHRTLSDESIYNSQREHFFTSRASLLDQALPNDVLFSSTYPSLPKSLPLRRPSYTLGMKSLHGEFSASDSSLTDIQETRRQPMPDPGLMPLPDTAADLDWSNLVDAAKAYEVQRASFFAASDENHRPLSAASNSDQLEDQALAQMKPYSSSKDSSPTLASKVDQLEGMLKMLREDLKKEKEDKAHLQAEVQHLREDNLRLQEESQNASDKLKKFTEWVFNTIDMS

ITGB4 = biological target: T7, ITGB4 (human, UniProt P16144 28-1822); assay: Y2H; INT ID 49
T7 construct: also called cbe_4280774

PTPN21 = biological target: T4, PTPN21; assay: Y2H; INT ID 41

Binder: B1
- binding result (RABIF): binds
- binding result (PCDH1): binds
- binding result [1]: binds

Binder: B2
- binding result (DKFZP434I1735 protein): binds

Binder: B3
- binding result [2]: binds

Binder: B4
- binding result (HPV 16 E1-E4): binds

Binder: B5
- binding result [3]: binds

Binder: B6
- binding result [4]: binds
- binding result (ITGB4): binds
- binding result (PTPN21): binds
